These results are taken from the RNAGym collection of RNA variant scans (doi:10.1073/pnas.2313332121).

B1: TPR 5TU (parent)
chain: GGAUCUUCUCGAUCUAACAAAAAAGACAAAUCUGCCACAAAGCUUGAGAGCAUCUUCGGAUGCAGAGGCGGCAGCCUUCGGUGGCGCGAUAGCGCCAACGUUCUCAACUAUGACACGCAAAACGCGUGCUCCGUUGAAUGGAGUUUAUCAUG

Variants at the floor of the assay were thinned out.

In the data set the parent is B1. The experiment in a line: polymerase ribozyme fitness, log enrichment relative to wild type (log ratio); higher = more active; in vitro selection for triplet polymerase activity. The gist of the method:
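In triplicate, a single round of in vitro selection was run on each mutant library, PCR-built and transcribed, covering one subunit of a heterodimeric triplet polymerase ribozyme. Frozen incubation at −7 °C followed annealing with a biotinylated primer, partner subunit and triplets, and extended constructs were then gel-excised, streptavidin-captured and taken through RT-PCR. Fitness is the logarithm of genotype enrichment over wild-type enrichment, from inverse-variance-weighted replicate averages of Illumina-sequenced inputs and outputs. […] only genotypes with ≥10 input reads and ≥1 read per output were kept.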
Consider A39G A60C, for which the “polymerase ribozyme fitness (log ratio)” value was -3.03.

A40C U53G A66G A119G: the “polymerase ribozyme fitness (log ratio)” value was at most -4.2.

A39U G59C G83U A147U: the “polymerase ribozyme fitness (log ratio)” value was -2.17.

Turning to A40G C43G A64C, the “polymerase ribozyme fitness (log ratio)” value was at most -4.2.

In the case of A39U U77G G124C U135G U146A, the “polymerase ribozyme fitness (log ratio)” value is at most -4.2.

Take A39G G59C U104A: the “polymerase ribozyme fitness (log ratio)” value is -3.12.

With A39U A41C G80C G84U A142C C149A, the “polymerase ribozyme fitness (log ratio)” value is at most -4.2.

Take A39G U55A G71A G92C C96U C131U C149A: the “polymerase ribozyme fitness (log ratio)” value is at most -4.2.

Turning to A39C U55G G81C A121U, the “polymerase ribozyme fitness (log ratio)” value was -2.31.

On to A39C G88U A97G A122G, for which the “polymerase ribozyme fitness (log ratio)” value was at most -4.2.

In the case of A39U C54U C57G U61A C95G C125G, the “polymerase ribozyme fitness (log ratio)” value is at most -4.2.

Turning to A39G G42A G88C, the “polymerase ribozyme fitness (log ratio)” value is at most -4.2.

For the variant A40G A41C C43A G83C C87G C96A, the “polymerase ribozyme fitness (log ratio)” value is at most -4.2.

Regarding A40C G62U A119U, the “polymerase ribozyme fitness (log ratio)” value was -0.408.

For A40G G48C A49C, the “polymerase ribozyme fitness (log ratio)” value is at most -4.2.

As to A39C U56G A73G, the “polymerase ribozyme fitness (log ratio)” value is -3.36.

For the variant A39U C69U C75U G84U U127G, the “polymerase ribozyme fitness (log ratio)” value was at most -4.2.

As to A40C U55A G59A A113U C123A, the “polymerase ribozyme fitness (log ratio)” value was -0.982.

Regarding A39U G100C U148A, the “polymerase ribozyme fitness (log ratio)” value was -4.2.

For the variant A40G A52G A91U U102C A138U G143U, the “polymerase ribozyme fitness (log ratio)” value is at most -4.2.

Regarding A39G A89G G92A G141C, the “polymerase ribozyme fitness (log ratio)” value was -3.85.

In the case of A40C G92U G94A, the “polymerase ribozyme fitness (log ratio)” value turned out to be 0.834.

In the case of A40C G141A, the “polymerase ribozyme fitness (log ratio)” value is 0.793.

Turning to A40C C125A, the “polymerase ribozyme fitness (log ratio)” value is -0.0259.

With A39U U101C U144G, the “polymerase ribozyme fitness (log ratio)” value was -2.52.

For the variant A39U G68A A73G C87G C132A G141C U144C, the “polymerase ribozyme fitness (log ratio)” value was at most -4.2.

As to A39C U53G C85U, the “polymerase ribozyme fitness (log ratio)” value is -4.06.

Regarding A39C U145C, the “polymerase ribozyme fitness (log ratio)” value is -1.66.

As to A39U C54U C96A, the “polymerase ribozyme fitness (log ratio)” value was -2.72.

A40G C95A U104G A142G: the “polymerase ribozyme fitness (log ratio)” value was -3.8.

Turning to A39C U56A G59C, the “polymerase ribozyme fitness (log ratio)” value is -2.08.

Turning to A39U C85U, the “polymerase ribozyme fitness (log ratio)” value was -2.27.

As for A39G G86C U109C G128U G140C, the “polymerase ribozyme fitness (log ratio)” value was at most -4.2.

With A40C G68U G86A C103G, the “polymerase ribozyme fitness (log ratio)” value is at most -4.2.

For the variant A39G A41G A49G G83C U145A, the “polymerase ribozyme fitness (log ratio)” value is -3.94.

Regarding A40C U55A G59C C69U G84A, the “polymerase ribozyme fitness (log ratio)” value was -2.39.

With A39U G48C G67A C85G G86U G88A G92A C118G, the “polymerase ribozyme fitness (log ratio)” value is at most -4.2.

For A40G G50U U56A G83C, the “polymerase ribozyme fitness (log ratio)” value is -4.02.

In the case of A39U U55A G83U C95G A115C C149G, the “polymerase ribozyme fitness (log ratio)” value was at most -4.2.

With A39G U45A A49U U61A C75U G83U C129G U144G, the “polymerase ribozyme fitness (log ratio)” value is at most -4.2.

Regarding A40C C93A, the “polymerase ribozyme fitness (log ratio)” value is -1.96.

For the variant A39U G46A C93G A119U U139G, the “polymerase ribozyme fitness (log ratio)” value was at most -4.2.

As for A40C C85U, the “polymerase ribozyme fitness (log ratio)” value is -0.549.

A40C C85A: the “polymerase ribozyme fitness (log ratio)” value was -2.39.

On to A39U A60G A137U, for which the “polymerase ribozyme fitness (log ratio)” value was -4.19.

In the case of A40C A52U U55A C93U, the “polymerase ribozyme fitness (log ratio)” value was -3.92.

For A40C U82C G94U, the “polymerase ribozyme fitness (log ratio)” value was -0.916.

With A39U A122G U145G, the “polymerase ribozyme fitness (log ratio)” value is -2.48.

As to A39U G59C G83U, the “polymerase ribozyme fitness (log ratio)” value is -2.72.

For the variant A39U U53C C108G C149U, the “polymerase ribozyme fitness (log ratio)” value was at most -4.2.

A39U G58C G74U A91G C123G G133A U146C: the “polymerase ribozyme fitness (log ratio)” value is at most -4.2.

Take A39U A40C G42U G48A A60U U82G C85A U104A U127C: the “polymerase ribozyme fitness (log ratio)” value is at most -4.2.

As for A39G C54G C57A, the “polymerase ribozyme fitness (log ratio)” value was -3.22.

As for A40C C75G C85A G141U, the “polymerase ribozyme fitness (log ratio)” value is at most -4.2.

As to A39G G80A G126U A138G, the “polymerase ribozyme fitness (log ratio)” value was at most -4.2.

For A40C U134A, the “polymerase ribozyme fitness (log ratio)” value is -1.77.

With A40G C54U C76U A91C C95G G143U, the “polymerase ribozyme fitness (log ratio)” value was at most -4.2.

Consider A40C A119C, for which the “polymerase ribozyme fitness (log ratio)” value is 0.851.

On to A40C U135A, for which the “polymerase ribozyme fitness (log ratio)” value is -0.385.

In the case of A40G A115G A137G C149U, the “polymerase ribozyme fitness (log ratio)” value is -4.02.

Take A40C G46A A91G U104G A119G U148G: the “polymerase ribozyme fitness (log ratio)” value was at most -4.2.

As for A40C G42A A52C G94C C99U, the “polymerase ribozyme fitness (log ratio)” value was at most -4.2.

For the variant A40G A73G G86A, the “polymerase ribozyme fitness (log ratio)” value was -4.16.

Consider A39U A52G G74U U90A A122G C125G C129U, for which the “polymerase ribozyme fitness (log ratio)” value was at most -4.2.

On to A39C G84A, for which the “polymerase ribozyme fitness (log ratio)” value was -3.26.

As to A39U C76A G83U C125U, the “polymerase ribozyme fitness (log ratio)” value is at most -4.2.

As for A40C A49C U56A A60C G84A G136A, the “polymerase ribozyme fitness (log ratio)” value was at most -4.2.

Regarding A39U A66C G68A C108U A121U U134A G143U, the “polymerase ribozyme fitness (log ratio)” value is at most -4.2.

Consider A40C C54U U56A G126U, for which the “polymerase ribozyme fitness (log ratio)” value is -0.0276.

Take A40C G50C C79U G81C C118U: the “polymerase ribozyme fitness (log ratio)” value is at most -4.2.

As to A39C G84A U144A, the “polymerase ribozyme fitness (log ratio)” value was -2.69.

In the case of A40G C125G, the “polymerase ribozyme fitness (log ratio)” value is -2.5.

Turning to A40C G88U C96U A122U U127G U148A A150U, the “polymerase ribozyme fitness (log ratio)” value was at most -4.2.

On to A40C U55A G88A C108G C118U U130A, for which the “polymerase ribozyme fitness (log ratio)” value was at most -4.2.

As to A40C C96U, the “polymerase ribozyme fitness (log ratio)” value is -0.579.

Regarding A40C G42A A49G G62C C93A, the “polymerase ribozyme fitness (log ratio)” value is at most -4.2.

A39U G86U C114U A120U G140A: the “polymerase ribozyme fitness (log ratio)” value was at most -4.2.

For A39G G59A C116U U144C, the “polymerase ribozyme fitness (log ratio)” value was -4.19.

Consider A39U C43U C85U G117U G126C C132G, for which the “polymerase ribozyme fitness (log ratio)” value is at most -4.2.

Take A40C U82G A89G: the “polymerase ribozyme fitness (log ratio)” value came out at 0.203.

In the case of A40C U56A A89G, the “polymerase ribozyme fitness (log ratio)” value is -0.978.

Regarding A39U G71C G84A C103U, the “polymerase ribozyme fitness (log ratio)” value is at most -4.2.

As to A39G U56G G58C C79U U102A U127G, the “polymerase ribozyme fitness (log ratio)” value was at most -4.2.

A39G C54A A91G G94A: the “polymerase ribozyme fitness (log ratio)” value was at most -4.2.
